Experimental data from PMC12623541.

Target: androgen receptor (AR) (human (endogenous in LNCaP and C4-2)) (UniProt P10275)
Assay: co-IP; lysates (RIPA buffer) of LNCaP and C4-2 cells transfected with siNC or siKMT2D; immunoprecipitation with primary antibody and Protein A/G agarose at 4 °C, western blot for AR and E3 ubiquitin ligases; which protein was precipitated is not stated for this panel

Chain of UniProt P10275 (P10275 whole entry): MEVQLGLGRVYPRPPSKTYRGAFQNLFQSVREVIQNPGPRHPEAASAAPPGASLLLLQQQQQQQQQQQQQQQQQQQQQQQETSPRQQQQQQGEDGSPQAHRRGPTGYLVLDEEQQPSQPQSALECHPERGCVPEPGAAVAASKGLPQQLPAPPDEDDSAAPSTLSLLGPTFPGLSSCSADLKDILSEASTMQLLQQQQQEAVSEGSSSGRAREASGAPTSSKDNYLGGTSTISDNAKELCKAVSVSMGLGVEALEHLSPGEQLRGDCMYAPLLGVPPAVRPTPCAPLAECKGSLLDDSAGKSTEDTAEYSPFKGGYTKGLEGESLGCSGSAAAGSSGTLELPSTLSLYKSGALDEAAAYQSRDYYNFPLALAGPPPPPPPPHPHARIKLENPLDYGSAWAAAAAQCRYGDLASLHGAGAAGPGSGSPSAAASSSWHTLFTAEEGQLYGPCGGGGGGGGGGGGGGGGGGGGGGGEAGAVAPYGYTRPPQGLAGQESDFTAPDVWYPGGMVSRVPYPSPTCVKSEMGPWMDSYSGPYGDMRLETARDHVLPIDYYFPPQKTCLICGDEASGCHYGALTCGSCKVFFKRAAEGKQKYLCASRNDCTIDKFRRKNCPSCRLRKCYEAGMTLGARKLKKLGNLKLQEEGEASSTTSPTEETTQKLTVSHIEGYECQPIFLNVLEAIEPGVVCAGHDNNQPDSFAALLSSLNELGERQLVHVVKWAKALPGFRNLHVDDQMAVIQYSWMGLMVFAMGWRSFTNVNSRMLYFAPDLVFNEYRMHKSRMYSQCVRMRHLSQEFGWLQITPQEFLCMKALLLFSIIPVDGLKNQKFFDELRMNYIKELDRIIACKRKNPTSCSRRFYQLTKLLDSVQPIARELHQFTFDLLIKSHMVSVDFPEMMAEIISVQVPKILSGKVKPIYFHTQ

Speckle Type BTB/POZ protein (SPOP) (from UniProt O43791 1-374) (natural protein)
fold change of SPOP bound to AR after KMT2D knockdown against control (C4-2 cells): 1.57 fold | fold change of SPOP bound to AR after KMT2D knockdown against control (LNCaP cells): 1.41 fold
